Experimental data as given in patent publication US20210246166A1 (Bayer, published 2021).
Numbered stars: 1 amine (or outer) side, 2 acyl side, 3 side chain; on linkers, the order of the positions; unused ones are H or OH. Bridge positions count the residues as written; N and C are the ends. Square brackets hold non-standard residues; d marks the D form. Ends that are not written are not given here. X17 = 2‑((1S,2S)-1-(Amino)-2-methylbutyl)‑1,3‑oxazole‑4‑carboxylic acid, CC[C@H](C)[C@H](N[*:1])c1nc(C(=O)[*:2])co1; Pro(4-spirocPr) = O=C(O)[C@@H]1CC2(CC2)CN1; Oic = O=C(O)[C@@H]1C[C@@H]2CCCC[C@@H]2N1; tBuAla = CC(C)(C)C[C@H](N)C(=O)O; PEG4 = NCCOCCOCCOCCOCCC(=O)O; Pen = CC(C)(S)[C@H](N)C(=O)O; NMeC = CN[C@@H](CS)C(=O)O; NMeA = CN[C@@H](C)C(=O)O; Nle = CCCC[C@H](N)C(=O)O; Sar = CNCC(=O)O

T1: recombinant human MASP1 active protease (amino acids 297-699, C-terminal His Tag) (human, UniProt P48740 297-699)
T1 sequence: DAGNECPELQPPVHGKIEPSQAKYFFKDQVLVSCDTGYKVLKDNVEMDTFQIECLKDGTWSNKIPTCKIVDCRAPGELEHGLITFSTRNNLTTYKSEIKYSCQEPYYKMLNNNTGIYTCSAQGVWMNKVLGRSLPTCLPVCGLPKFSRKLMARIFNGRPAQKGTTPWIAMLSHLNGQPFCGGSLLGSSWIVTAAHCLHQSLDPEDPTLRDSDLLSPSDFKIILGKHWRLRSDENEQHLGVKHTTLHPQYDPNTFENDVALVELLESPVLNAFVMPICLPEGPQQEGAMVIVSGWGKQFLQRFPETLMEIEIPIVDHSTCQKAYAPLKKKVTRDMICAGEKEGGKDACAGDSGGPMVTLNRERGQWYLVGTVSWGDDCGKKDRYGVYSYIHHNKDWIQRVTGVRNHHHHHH

B1: ((N-Me)A)-IC+SRSLP-(Oic)-I-(Pen)+I-NH2 (peptide)
peptide: [NMeA]ICSRSLP[Oic]I[Pen]I-NH2
modifications: disulfide 3-11; N-terminus assumed
SMILES: CC[C@H](C)[C@H](NC(=O)[C@H]1NC(=O)[C@H]([C@@H](C)CC)NC(=O)[C@@H]2C[C@@H]3CCCC[C@@H]3N2C(=O)[C@@H]2CCCN2C(=O)[C@H](CC(C)C)NC(=O)[C@H](CO)NC(=O)[C@H](CCCNC(=N)N)NC(=O)[C@H](CO)NC(=O)[C@@H](NC(=O)[C@@H](NC(=O)[C@H](C)NC)[C@@H](C)CC)CSSC1(C)C)C(N)=O
B2: AIC+SRSLP-(Oic)-IC+IPD-OH (peptide)
peptide: AICSRSLP[Oic]ICIPD-OH
modifications: disulfide 3-11; N-terminus assumed
SMILES: CC[C@H](C)[C@H](NC(=O)[C@H](C)N)C(=O)N[C@H]1CSSC[C@@H](C(=O)N[C@H](C(=O)N2CCC[C@H]2C(=O)N[C@@H](CC(=O)O)C(=O)O)[C@@H](C)CC)NC(=O)[C@H]([C@@H](C)CC)NC(=O)[C@@H]2C[C@@H]3CCCC[C@@H]3N2C(=O)[C@@H]2CCCN2C(=O)[C@H](CC(C)C)NC(=O)[C@H](CO)NC(=O)[C@H](CCCNC(=N)N)NC(=O)[C@H](CO)NC1=O
B3: AIC+SRS-((tBu)A)-P-(Oic)-I-(Pen)+IPD-OH (peptide)
peptide: AICSRS[tBuAla]P[Oic]I[Pen]IPD-OH
modifications: disulfide 3-11; N-terminus assumed
SMILES: CC[C@H](C)[C@H](NC(=O)[C@H](C)N)C(=O)N[C@H]1CSSC(C)(C)[C@@H](C(=O)N[C@H](C(=O)N2CCC[C@H]2C(=O)N[C@@H](CC(=O)O)C(=O)O)[C@@H](C)CC)NC(=O)[C@H]([C@@H](C)CC)NC(=O)[C@@H]2C[C@@H]3CCCC[C@@H]3N2C(=O)[C@@H]2CCCN2C(=O)[C@H](CC(C)(C)C)NC(=O)[C@H](CO)NC(=O)[C@H](CCCNC(=N)N)NC(=O)[C@H](CO)NC1=O
B4: ((N-Me)G)-IC+SRS-((tBu)A)-PPI-(Pen)+IP-(PEG3(16atoms))-NH2 (peptide)
peptide: [Sar]ICSRS[tBuAla]PPI[Pen]IP[PEG4]-NH2
modifications: disulfide 3-11; N-terminus assumed
SMILES: CC[C@H](C)[C@H](NC(=O)CNC)C(=O)N[C@H]1CSSC(C)(C)[C@@H](C(=O)N[C@H](C(=O)N2CCC[C@H]2C(=O)NCCOCCOCCOCCOCCC(N)=O)[C@@H](C)CC)NC(=O)[C@H]([C@@H](C)CC)NC(=O)[C@@H]2CCCN2C(=O)[C@@H]2CCCN2C(=O)[C@H](CC(C)(C)C)NC(=O)[C@H](CO)NC(=O)[C@H](CCCNC(=N)N)NC(=O)[C@H](CO)NC1=O
B5: AIC+SRSLP-((6S)-5-Azaspiro[2.4]heptane-6-carboxylic acid)-I-(Pen)+IPD-NH2 (peptide)
peptide: AICSRSLP[Pro(4-spirocPr)]I[Pen]IPD-NH2
modifications: disulfide 3-11; N-terminus assumed
SMILES: CC[C@H](C)[C@H](NC(=O)[C@H](C)N)C(=O)N[C@H]1CSSC(C)(C)[C@@H](C(=O)N[C@H](C(=O)N2CCC[C@H]2C(=O)N[C@@H](CC(=O)O)C(N)=O)[C@@H](C)CC)NC(=O)[C@H]([C@@H](C)CC)NC(=O)[C@@H]2CC3(CC3)CN2C(=O)[C@@H]2CCCN2C(=O)[C@H](CC(C)C)NC(=O)[C@H](CO)NC(=O)[C@H](CCCNC(=N)N)NC(=O)[C@H](CO)NC1=O
B6: RIC+SRS-((tBu)A)-PPI-((N-Me)C)+IPD-NH2 (peptide)
peptide: RICSRS[tBuAla]PPI[NMeC]IPD-NH2
modifications: disulfide 3-11; N-terminus assumed
SMILES: CC[C@H](C)[C@H](NC(=O)[C@@H](N)CCCNC(=N)N)C(=O)N[C@H]1CSSC[C@@H](C(=O)N[C@H](C(=O)N2CCC[C@H]2C(=O)N[C@@H](CC(=O)O)C(N)=O)[C@@H](C)CC)N(C)C(=O)[C@H]([C@@H](C)CC)NC(=O)[C@@H]2CCCN2C(=O)[C@@H]2CCCN2C(=O)[C@H](CC(C)(C)C)NC(=O)[C@H](CO)NC(=O)[C@H](CCCNC(=N)N)NC(=O)[C@H](CO)NC1=O
B7: AIC+SRS-((tBu)A)-PPI-((N-Me)C)+(2-[(1S,2S)-1-(Amino)-2-methylbutyl]-1,3-oxazole-4-carboxylic acid)-D-NH2 (peptide)
peptide: AICSRS[tBuAla]PPI[NMeC][X17]D-NH2
modifications: disulfide 3-11; N-terminus assumed
SMILES: CC[C@H](C)[C@H](NC(=O)[C@H](C)N)C(=O)N[C@H]1CSSC[C@@H](C(=O)N[C@H](c2nc(C(=O)N[C@@H](CC(=O)O)C(N)=O)co2)[C@@H](C)CC)N(C)C(=O)[C@H]([C@@H](C)CC)NC(=O)[C@@H]2CCCN2C(=O)[C@@H]2CCCN2C(=O)[C@H](CC(C)(C)C)NC(=O)[C@H](CO)NC(=O)[C@H](CCCNC(=N)N)NC(=O)[C@H](CO)NC1=O
B8: AIC+SRS-((tBu)A)-PPI-(Pen)+IPe-NH2 (peptide)
peptide: AICSRS[tBuAla]PPI[Pen]IP[dE]-NH2
modifications: disulfide 3-11; N-terminus assumed
SMILES: CC[C@H](C)[C@H](NC(=O)[C@H](C)N)C(=O)N[C@H]1CSSC(C)(C)[C@@H](C(=O)N[C@H](C(=O)N2CCC[C@H]2C(=O)N[C@H](CCC(=O)O)C(N)=O)[C@@H](C)CC)NC(=O)[C@H]([C@@H](C)CC)NC(=O)[C@@H]2CCCN2C(=O)[C@@H]2CCCN2C(=O)[C@H](CC(C)(C)C)NC(=O)[C@H](CO)NC(=O)[C@H](CCCNC(=N)N)NC(=O)[C@H](CO)NC1=O
B9: AIC+SRS-((tBu)A)-PPI-(Pen)+IPn-NH2 (peptide)
peptide: AICSRS[tBuAla]PPI[Pen]IP[dN]-NH2
modifications: disulfide 3-11; N-terminus assumed
SMILES: CC[C@H](C)[C@H](NC(=O)[C@H](C)N)C(=O)N[C@H]1CSSC(C)(C)[C@@H](C(=O)N[C@H](C(=O)N2CCC[C@H]2C(=O)N[C@H](CC(N)=O)C(N)=O)[C@@H](C)CC)NC(=O)[C@H]([C@@H](C)CC)NC(=O)[C@@H]2CCCN2C(=O)[C@@H]2CCCN2C(=O)[C@H](CC(C)(C)C)NC(=O)[C@H](CO)NC(=O)[C@H](CCCNC(=N)N)NC(=O)[C@H](CO)NC1=O
B10: ((N-Me)A)-IC+SRS-((tBu)A)-P-(Oic)-I-(Pen)+IP-NH2 (peptide)
peptide: [NMeA]ICSRS[tBuAla]P[Oic]I[Pen]IP-NH2
modifications: disulfide 3-11; N-terminus assumed
SMILES: CC[C@H](C)[C@H](NC(=O)[C@H](C)NC)C(=O)N[C@H]1CSSC(C)(C)[C@@H](C(=O)N[C@H](C(=O)N2CCC[C@H]2C(N)=O)[C@@H](C)CC)NC(=O)[C@H]([C@@H](C)CC)NC(=O)[C@@H]2C[C@@H]3CCCC[C@@H]3N2C(=O)[C@@H]2CCCN2C(=O)[C@H](CC(C)(C)C)NC(=O)[C@H](CO)NC(=O)[C@H](CCCNC(=N)N)NC(=O)[C@H](CO)NC1=O
B11: ((N-Me)A)-IC+SRS-((tBu)A)-PPI-(Pen)+IPD-NH2 (peptide)
peptide: [NMeA]ICSRS[tBuAla]PPI[Pen]IPD-NH2
modifications: disulfide 3-11; N-terminus assumed
SMILES: CC[C@H](C)[C@H](NC(=O)[C@H](C)NC)C(=O)N[C@H]1CSSC(C)(C)[C@@H](C(=O)N[C@H](C(=O)N2CCC[C@H]2C(=O)N[C@@H](CC(=O)O)C(N)=O)[C@@H](C)CC)NC(=O)[C@H]([C@@H](C)CC)NC(=O)[C@@H]2CCCN2C(=O)[C@@H]2CCCN2C(=O)[C@H](CC(C)(C)C)NC(=O)[C@H](CO)NC(=O)[C@H](CCCNC(=N)N)NC(=O)[C@H](CO)NC1=O
B12: AIC+SRS-((tBu)A)-PPI-((N-Me)C)+I-NH2 (peptide)
peptide: AICSRS[tBuAla]PPI[NMeC]I-NH2
modifications: disulfide 3-11; N-terminus assumed
SMILES: CC[C@H](C)[C@H](NC(=O)[C@@H]1CSSC[C@H](NC(=O)[C@@H](NC(=O)[C@H](C)N)[C@@H](C)CC)C(=O)N[C@@H](CO)C(=O)N[C@@H](CCCNC(=N)N)C(=O)N[C@@H](CO)C(=O)N[C@@H](CC(C)(C)C)C(=O)N2CCC[C@H]2C(=O)N2CCC[C@H]2C(=O)N[C@@H]([C@@H](C)CC)C(=O)N1C)C(N)=O
B13: (Nle)-IC+SRS-((tBu)A)-PPI-((N-Me)C)+I-NH2 (peptide)
peptide: [Nle]ICSRS[tBuAla]PPI[NMeC]I-NH2
modifications: disulfide 3-11; N-terminus assumed
SMILES: CCCC[C@H](N)C(=O)N[C@H](C(=O)N[C@H]1CSSC[C@@H](C(=O)N[C@H](C(N)=O)[C@@H](C)CC)N(C)C(=O)[C@H]([C@@H](C)CC)NC(=O)[C@@H]2CCCN2C(=O)[C@@H]2CCCN2C(=O)[C@H](CC(C)(C)C)NC(=O)[C@H](CO)NC(=O)[C@H](CCCNC(=N)N)NC(=O)[C@H](CO)NC1=O)[C@@H](C)CC

Molecular target: recombinant human MASP2 active protease (amino acids 297-686, C-terminal His Tag) (human, UniProt O00187 297-686)
Sequence (O00187 other isoform, or with tags, fused parts or gaps limits assumed): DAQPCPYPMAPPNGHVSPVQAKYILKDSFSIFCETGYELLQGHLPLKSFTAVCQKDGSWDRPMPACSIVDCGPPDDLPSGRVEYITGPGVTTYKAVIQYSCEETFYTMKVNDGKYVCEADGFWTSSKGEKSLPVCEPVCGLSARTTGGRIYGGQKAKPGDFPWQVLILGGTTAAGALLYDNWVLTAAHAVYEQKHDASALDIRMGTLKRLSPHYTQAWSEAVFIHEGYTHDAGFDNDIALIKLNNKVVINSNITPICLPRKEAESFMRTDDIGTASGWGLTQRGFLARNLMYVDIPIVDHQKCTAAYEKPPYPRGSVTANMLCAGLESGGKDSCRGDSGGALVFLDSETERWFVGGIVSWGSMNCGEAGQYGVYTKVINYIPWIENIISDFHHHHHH
Experiment: cell-based or functional assay

Binder	human MASP2 IC50 [nM]
B1	195
B2	316
B3	62
[2‑(Pyrrolidine)acetyl]ICSRS[tBuAla]PPI[Pen]IPD-NH2 (disulfide 3-11) [(2-(Pyrrolidine)acetyl)-IC+SRS-((tBu)A)-PPI-(Pen)+IPD-NH2]	87
B4	28
B5	18
B6	100
B7	720
B8	62
B9	53
B10	40
B11	98
B12	100
B13	56
AICSRS[tBuAla]PPI[NMeC]IPD-NH2 (disulfide 3-11; also: HCl salt) [AIC+SRS-((tBu)A)-PPI-((N-Me)C)+IPD-NH2 (HCl salt)]	140

Molecular target: T1, recombinant human MASP1 active protease …
Experiment: cell-based or functional assay

Binder	human MASP1 IC50 [nM]
B1	3.75
B2	4.65
B3	1.3
[2‑(Pyrrolidine)acetyl]ICSRS[tBuAla]PPI[Pen]IPD-NH2 (disulfide 3-11) [(2-(Pyrrolidine)acetyl)-IC+SRS-((tBu)A)-PPI-(Pen)+IPD-NH2]	1.3
B4	1.3
B5	1.33
B6	1.36
B7	1.4
B8	1.4
B9	1.4
B10	1.4
B11	1.43
B12	1.5
B13	1.5
AICSRS[tBuAla]PPI[NMeC]IPD-NH2 (disulfide 3-11; also: HCl salt) [AIC+SRS-((tBu)A)-PPI-((N-Me)C)+IPD-NH2 (HCl salt)]	1.53
